Source: patent publication US20030166587

Test system: IKK-phosphorylated IκBα in the IκBα/NF-κB complex
Sequence (chain, as listed by the source): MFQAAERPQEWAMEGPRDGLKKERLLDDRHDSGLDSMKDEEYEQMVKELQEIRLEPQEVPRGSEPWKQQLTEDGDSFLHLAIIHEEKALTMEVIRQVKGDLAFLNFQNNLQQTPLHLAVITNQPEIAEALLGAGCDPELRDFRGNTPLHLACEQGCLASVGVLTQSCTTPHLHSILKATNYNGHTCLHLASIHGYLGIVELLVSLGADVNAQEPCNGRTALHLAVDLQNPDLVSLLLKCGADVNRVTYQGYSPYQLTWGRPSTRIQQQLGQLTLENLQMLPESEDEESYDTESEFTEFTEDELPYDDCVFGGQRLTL

## Drosophila Slimb protein, FLAG-tagged
  in vitro ubiquitination of pIκBα in the presence of E1 and E2 (UBC5C), efficiency against human and mouse β-TrCP (fold less efficient): > 10
